In the nanobody polyreactivity screen of Harvey et al. (2022):

Assay: yeast display, Sf9 membrane polyspecificity reagent, FACS + sequencing; frameworks hold sequencing errors
Summary of the method: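 After 36–48 hours of galactose induction, yeast (Saccharomyces cerevisiae BJ5465) displaying a synthetic nanobody library were stained at 4 °C for 1 hour with 10% biotinylated, detergent-solubilized Sf9 membrane reagent. Streptavidin microbeads enriched the stained cells before FACS sorting into low and high (top ~1%) gates on anti-HA and streptavidin fluorescence. Each clone's polyreactivity label reflects its gate of origin.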

| Sequence | polyreactivity (PSR sort gate) |
| --- | --- |
| KLQLVDSGGGLVQAGGSLRLSCAASGSTIRYYAMGWYRQAPGKERELVAAITISGGGTYADSVKGRFTISRDNAKNTVYLEMNSLKPEDTAVYYCAATYYGFLYRSIGDYWGQGTQVTVSS | low polyreactivity |
| KVQLQESGGGLVQAGGSLRPSCAASGSITDGVPMGWDRQAPGEERELVATTVLGATTNYADSVKGRFTISRGNAKNTVYLLMNSLKPEETAVYYCAAPLRYDKGFSYWRQGTQVTVSS | low polyreactivity |
| KVQLVESGGGIVQAGGSLRLSCAASGSTFVRNAMGWYRQAPGKERELVAGITFGGGSTYYADSVKGRFTISRDNAKNTVYLQMNSLKAEDTAVYFCAKRDYSPWPAAGYPYDYDYWGQGTQVTVSS | low polyreactivity |
| KVQLVESGGGLVQAGGSLRISCAASGSNFGRYAMGWYRQAPGKERELVAAISARGGSTYYADSVKGRFTISRDNAKNTVYLQMNSLKPEDTAFYYCNVLVRYSDQSSDSWGQGTQVTVSS | high polyreactivity |
| KVQLVESGGGLVQAGGSLRLSCAASGINCYYYAMGWYRQAPGKERELVAVISSSGGRTYYADSVKGRFTISRDNSKNTVYLQMNSLKPEDTAVYYCAARGYGATYDYWGQGTQVTVSS | high polyreactivity |
| KVQLVESGGGLVQAGGSLRLSCAASGITLSYYAMGWYSQAPGKEMELVAAINRGGRTYYADSVTGRFTISRDNAKNTVYLQMNSLKPEDTAVYYCATAYASSQKYYYWGQGTQVTVSS | high polyreactivity |
| KVQLVESGGGLVQAGGSLRLSCAASGRTFLRYAMGWYRQAPGKERELVAAISTSGGSTYYADSVKGRFTISRDNAKNTVYLQMNSLKPEDTAVYYCAATSTSYTYTHSYGYWGQGTQVTVSS | low polyreactivity |
| KVQLVESGGGLVQAGGSLRLSCAASGSIFTHNAMGWYRQAPGKERELVAAISSGGSTNYADSVKGRFTISRDNAKNTVYLQMNSLKPEDTAVYYCAKSIDGWYWRRRRYDYWGQGTQVTVSS | low polyreactivity |
| KVQLVESGGGLVQAGGSLRLSCAASGSIIGGYAMGWYRQAPGKVRELVAAINRSGGRTYYADSVKGRFTFSRDNAKNTVYLQMNSLKPEDTAVYYCAADNFRGKYDYLGQGTQVTVSS | high polyreactivity |
| KVQLVESGGGLVQAGGSLRLSCAASGSTFYYYAMGWNRQAPGKERELVAVITLSGGSTYYADSVKGRFTISRDNAKNTFYLQMNSLKPEDTAVFYCAAEHWEVWNSYYYEYDYWGQGTLVTVSS | high polyreactivity |
| KVQLVESGGGLVQAGGSLRVRCAASGFTFGVYAMGWYRQAPGKEREFVAVITWRGGRTYYADSVKGRFTISRDNAQNTVYLQMNSLKPEDTGVYYCNARPRIYLTLYYWGQGTQVSVSS | high polyreactivity |
| KVQLVESRGGLVQAGGSLRLSCAASGIIFYTYAMGWNRQAPGKERELVASISWDVDSTNYADSVKGRFTISRDNAKNTVYLQMNSLKPEYTAVYYCAVDYTFDSYWYWVDYYEYGYWGQGTQVTVSS | high polyreactivity |
| KVQLVETGGGLVQAGGSLRLSCAASGSILIYNAMGWYRQAPGKERELVAGISRRGASTYYADSVKGRFTNSRDNAKKTVYLQMKSLKPEDTAVYYCAALGKYIVAWSGDFWGQGTQVTVSS | low polyreactivity |
| LGQVVESGGGLVQAGGSLRLSCAASGRIFHRNTMGWYRQAPGKEWELVAAISGSTGRTYYADSVKGRFPISRDNAKTTVYLQMNSLKPEDTAVYYCAKVYRRSGSVARYDYGGQGTQVTVSS | high polyreactivity |
| LLMGWYRQAPGEERELVAGINDGASTNYADSVKGRFTISRDNARNTVYLKMNSLKPGDTAVYYCAVWQPVLIWFYYWGQGTQVTVSS | high polyreactivity |
| LVLLVESGGGLVQAGGSLRLSCAASGSSLDWYAMGWYRQAPGNVRELVASLSYSGGTTYYADSVTVRFTISRDNAKNTVYLQMISLKPDDTAVDYCATDLLNNVDYDYWGQGTQVTVSS | low polyreactivity |
| LVQLVESGGGLVQAGGSLRLICAASGSIFSGYAMGWYRQAPGNERELVAAITRSGGRTYYADSVKGRFTISRDNAKNTVYLQMNSLKPEDTAGYYCATLPRYYGYWGQGTQVTVSS | high polyreactivity |
